# From the supplement of paper PMC12042874
# ± gives the uncertainty stated by the source.
# Assay: amyloid nucleation score (Sup35N fusion, yeast selection) (log enrichment); library NNK2; higher = more nucleation; inactive = no reads after selection
# How it was run: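 The nucleation score, computed with DiMSum, is the log enrichment of output over input reads, centred on the mode score of non-aggregating sequences. Sequences with under 100 input reads were dropped. Reads were generated by Illumina sequencing of plasmid inserts from psi-negative yeast with Sup35N fused to peptides of 20 random codons, induced with 100 μM copper sulfate for 24 hours and grown 7 days at 30°C on medium lacking adenine and uracil.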
row,Substance,amyloid nucleation score
1,WLVFQFYVRGRREMVS,1.4 ± 0.2
2,WMSVG,-0.081 ± 1.1
3,WMTRIFTINVGNWWGFMHSR,3.02 ± 0.056
4,WNCLICRYVNVCKLLCFYY,6.505 ± 0.031
5,WNEIE,inactive
6,WNGYNGRDMCGKLCGVCTLG,0.219 ± 0.43
7,WNKYLCFKFRFYLPFVNYWL,inactive
8,WNLFMQYAFYRMDLASK,-0.689 ± 1.1
9,WPLRL,0.348 ± 0.31
10,WQENFSHCNLSMLCEVNLSK,-0.44 ± 0.49
11,WQHGVRSGQQECPRLEGNRV,0.379 ± 0.23
12,WRGFTECRVKLRYSGSGQFC,2.92 ± 0.058
13,WRQLRSPVYRPYCL,-0.124 ± 0.32
14,WRYIAVNFSNAFNDLVDSCA,0.117 ± 0.79
15,WSCYKNWG,-1.13 ± 0.5
16,WSEVGWFIYDKFREFVFSIK,inactive
17,WSGQPGFSTYGICLLSVRLK,-0.286 ± 0.65
18,WSITGG,0.477 ± 0.66
19,WSLLV,0.478 ± 0.8
20,WSLYHASERENIRPALTSIW,0.325 ± 0.21
21,WSLYLVVLAQ,0.294 ± 0.51
22,WSNSYHRLILWRQCIFGLLV,2.76 ± 0.081
23,WSRIGG,-0.498 ± 0.63
24,WSSTVKSVKSAGAP,0.475 ± 0.38
25,WSTFSTFTGYSA,-0.335 ± 0.5

row,Substance,amyloid nucleation score
1,WSVCKRLCNVEMLAENLAID,-0.67 ± 0.79
2,WSVVLWDVEGYWASASSQLW,0.907 ± 0.35
3,WSYCVNERSVIKQGLTCAYV,-0.28 ± 0.76
4,WTDTGMTYLFCNLFWLACGI,5.634 ± 0.03
5,WTHVHTRKDSLLSTGNCVPI,inactive
6,WTTYLGSFKWRNRVKWWPAP,1.88 ± 0.18
7,WTYACPKRHNVIVVC,3 ± 0.062
8,WTYDVQGREVCYVKPYLAMW,1.07 ± 0.32
9,WVLDVSFTVVFKMIHGVVSL,3.9 ± 0.14
10,WVLMYDICGS,inactive
11,WVLVYIICFTQDDS,-1.4 ± 1.1
12,WVSCVVCFWIDHESAALESV,8.784 ± 0.036
13,WVSSIGGDWGMIYSLLQLYW,0.205 ± 0.46
14,WVSSQAEWGVLCGICRSLES,inactive
15,WVVRGWLGV,0.23 ± 0.38
16,WWLYAL,3.74 ± 0.11
17,WWYGGLEMGFIICFRIPNVI,-0.606 ± 1.1
18,WYFIGKCRDGVSDGMRNNVR,0.148 ± 0.22
19,WYFPSVKIIENLW,6.035 ± 0.038
20,WYGFNNDTEWKNTKAFW,1.83 ± 0.084
21,WYNCSALWESLMFNGLQAVW,-0.268 ± 0.48
22,YAQWYDCTSSAEKRYKKVLS,-0.473 ± 0.31
23,YAWKNPYSCWICR,-0.174 ± 0.44
24,YCCCVSMFVRTLIARDYNLN,8.154 ± 0.078
25,YCCTDQGFSLGYRMLWCRDN,-1 ± 0.24

row,Substance,amyloid nucleation score
1,YCERAHALICSLRQVGWVPR,0.719 ± 0.25
2,YCGDLRCCKTHLSCRSCVSN,inactive
3,YCITEVRWAVA,5.61 ± 0.058
4,YCMFFCGCVTDPECNVPSDM,3.49 ± 0.1
5,YCMNLKDSTLLILKQPARST,7.045 ± 0.047
6,YCSYQVVRGRPSVAGRDNLQ,-0.424 ± 0.63
7,YCVRVMYNKLRLHMNIVVVC,0.705 ± 0.58
8,YDAMFS,1.09 ± 0.45
9,YDDKLHRPDDFGCRDHSPGM,0.495 ± 0.41
10,YDEYF,inactive
11,YDGAIDITTGLFLCFWVCTV,3.96 ± 0.047
12,YDLGLKFNSHLATWGGFYHW,-0.746 ± 0.76
13,YDNKASDVMVNYLRHICVYS,inactive
14,YDNTEASGLSWRTLLQGAVW,0.562 ± 0.45
15,YDVSYYCNCIAVLKSRLREL,5.203 ± 0.031
16,YEGNFAHCFSLGPDHVID,-0.202 ± 1.1
17,YEVREFSCHGINIKMEGIYC,1.48 ± 0.2
18,YEVSIIFCRLFSILIRPGTS,-1.1 ± 1.1
19,YFCCVSTIARSMFLSRGSGR,8.771 ± 0.058
20,YFCSLDSMPQSSVFDYLSAL,-0.43 ± 1.1
21,YFGTLSLLKHEVA,-0.289 ± 0.3
22,YFKCGGHAFCVSNYARLNDF,-0.573 ± 0.42
23,YFLGAFTYVFCACHSFCRYW,1.86 ± 0.15
24,YFLGMVPSFSLWYETSQSQC,-0.768 ± 0.42
25,YFLSSFVSNWWAQYVYW,inactive

row,Substance,amyloid nucleation score
1,YFMLPLYMMLLGYFYKTICS,6.933 ± 0.067
2,YFNIYAVEIVLGIRLFNNVD,1.99 ± 0.067
3,YFRISTWRFRTRHLGPCERG,5.708 ± 0.054
4,YFSCEFDTYHGEYCCMWQIM,0.069 ± 0.8
5,YFVCVASDGNMGIRYATR,inactive
6,YFVRFEDIGWTVSVHTGDSG,-0.063 ± 0.45
7,YFYNGSRA,-1.61 ± 1.1
8,YGCCGKDFCVGPRGVCAV,1.05 ± 0.24
9,YGGKSHPLIWFACIWSYIVN,3.04 ± 0.07
10,YGPLNFDTSP,0.74 ± 0.16
11,YGQKVMPESMKQSFNFMTEI,-0.573 ± 0.63
12,YGQSRANDTDDPGWGTVMRL,0.3 ± 0.74
13,YGSRVYLRVWKLGCFGQYGE,1.68 ± 0.27
14,YGSVR,0.669 ± 0.37
15,YGVGMVWMVIECEEVGYVRR,0.683 ± 0.16
16,YHCENDEALIRDSGPSKTTK,0.485 ± 0.41
17,YHCGFGAS,0.837 ± 0.44
18,YHFYMASYKAFKSGGVGTGG,-1.56 ± 1.1
19,YHGFSQDCLNV,-0.042 ± 0.55
20,YHGVLSFLII,1.29 ± 0.36
21,YHRCMKGVRDFVKLVDDCML,-1.09 ± 0.49
22,YHWIIIRVA,-0.601 ± 0.79
23,YHWNVGIDGYLNSTMLLQAY,inactive
24,YHYANDMFFN,-0.727 ± 0.56
25,YICLAVGDVNGEMNYWVIRG,6.865 ± 0.043

row,Substance,amyloid nucleation score
1,YIFSILRDKSVPFDSQVSKN,-0.797 ± 1.1
2,YIFSIS,-1.26 ± 0.62
3,YIIRRYWARPSYVNSFM,-0.31 ± 0.74
4,YIIWLI,inactive
5,YILSDIIFMGIWGV,4.1 ± 0.13
6,YINSGV,inactive
7,YISIPDVCLLHSIPQSRASI,inactive
8,YIVQWSFMVSRSQ,1.62 ± 0.086
9,YKLGTRMSECLRNNVLDSSS,inactive
10,YKNVFHNCILADSSVYWNTH,5.764 ± 0.044
11,YLAFSMEHAGCLHHRVSGIM,5.46 ± 0.084
12,YLEWIL,-2.06 ± 0.54
13,YLFVQEKKRVFRYFRWRHPV,-0.032 ± 0.8
14,YLGICTMFDTGIGEIFTCCT,5.78 ± 0.069
15,YLIAELFQIVDACLWLSSWR,-0.328 ± 0.38
16,YLIKMTCVGIMFSV,6.592 ± 0.04
17,YLKFIKANVRTSGKKLA,-0.562 ± 1.1
18,YLKGNIKATVFTNSPMLV,-0.085 ± 0.79
19,YLLGRMKWLNTVRWERRDEF,3.51 ± 0.083
20,YLLTLFGPRMTD,-1.45 ± 0.76
21,YLLWSTVSAAFSDCRGLKYG,inactive
22,YLLYSNRQISYTFYCDDTVC,inactive
23,YLPVLEVVPTNGVPHDRFWS,1.08 ± 0.29
24,YLQLRMLTVMGCLRLCTSMP,0.386 ± 0.34
25,YLSIFRVLSIFCVWLHTVGN,inactive

row,Substance,amyloid nucleation score
1,YLSKTLIAVMDFCVLDTG,-0.971 ± 0.48
2,YLYGGVYKIKIMILPFDRAL,7.621 ± 0.044
3,YLYLRKASEFLKGRWWVKYK,inactive
4,YLYPSCCIRYILILNFYTVI,0.013 ± 0.16
5,YLYSAQNIRGRWLFCSMKCD,-1.03 ± 0.62
6,YLYSNG,inactive
7,YMNQERVQTVFDSRICFRLH,-0.246 ± 0.35
8,YMRDFYRVRNYRRCCVVCPS,-1.59 ± 1.1
9,YMSFPLDVLVICLCRIVIES,0.089 ± 1.1
10,YMTEIANKRSPRACWIGERM,-0.156 ± 0.79
11,YNCGSLILNRISSGL,-2.21 ± 0.76
12,YNNAGGQVDLNLCYGLDVFL,inactive
13,YNQSMYFRVLGFYTYPSDRG,2.32 ± 0.07
14,YNRNRCEVWRLFCLFCLLCF,2 ± 0.089
15,YNSCFYQKWVMCGHSCYHQV,4.77 ± 0.11
16,YNSTLKFLSKLKLVNIIGTV,-1.26 ± 1.1
17,YPDDLVMPLDDQRCKARLGH,0.665 ± 0.57
18,YPEADALLRFGVMDIHN,0.085 ± 0.36
19,YPFLIS,-0.922 ± 1
20,YPVLN,-0.834 ± 0.49
21,YQDSKRE,-0.833 ± 1.1
22,YQIFNKLVAHFKYNYTQTDR,-0.902 ± 0.56
23,YQNIVIRLLVLCYNVTDGLV,3.02 ± 0.14
24,YQRMPSIYGEVVCHQSCQGV,-0.069 ± 0.45
25,YQRRRSGGLELDWSNTMQGC,-0.015 ± 0.31

row,Substance,amyloid nucleation score
1,YRCVWYGFPSRSWAGSSDIL,0.309 ± 0.8
2,YRDECWLSYS,-0.347 ± 0.56
3,YRKAGSSQTGNFLLLLLDGG,0.067 ± 0.63
4,YRLMLMS,0.43 ± 0.42
5,YRMAAVIYIYIIRFSGSCMW,-2.08 ± 0.62
6,YRNRVSLRKYRDARYQLCCT,0.247 ± 0.25
7,YRVAMYMDSVFIMYAYDIPN,2.1 ± 0.14
8,YRVCAYLAAKEFDSRHGGDA,0.744 ± 0.37
9,YRVWWSVIYVKWVG,-0.618 ± 1.1
10,YRWDHILDVGSSFVL,3.61 ± 0.064
11,YRWVRVSNRGCRTNMIKYMS,-1.66 ± 0.36
12,YSCMVFSLGRVMELSGHMFG,inactive
13,YSFGVQC,0.067 ± 0.25
14,YSFNLCNS,-0.013 ± 0.45
15,YSFYAGFVNYIKVWNNRG,4.23 ± 0.05
16,YSGRREILYHNRVSPHCMNL,2.64 ± 0.12
17,YSHAGEASWDYVSLWFSSRK,0.49 ± 0.46
18,YSIYELPTHYLKCLRSYKSK,-0.627 ± 1.1
19,YSMSLASSRCR,inactive
20,YSNRVTLMSYDIN,inactive
